# Measurements reported in US20210389324.
# What was measured:
# [1] = tested on: CFP-TRIM14-YFP 25-residue substrate
substance,measurement,setting,value
Recombinant VEEV nsP2-thioredoxin Protease containing residues 457-792,Km,[1],21 µM
same,Vmax,[1],0.056 U/mg
same,cleavage of CFP-YFP substrate,[1],VEEV nsP2 cysteine protease
same,Km,CFP-V12-YFP,12 µM
same,Vmax,CFP-V12-YFP,0.059 U/mg
same,cleavage of CFP-YFP substrate,CFP-V12-YFP,VEEV nsP2 cysteine protease
